From PMC5345856, “Suppressor of rid1 (SID1) shares common targets with RID1 on florigen genes to initiate floral transition in rice”

T1: RID1 (Oryza sativa (rice), UniProt B1B534 1-475)
T1 sequence: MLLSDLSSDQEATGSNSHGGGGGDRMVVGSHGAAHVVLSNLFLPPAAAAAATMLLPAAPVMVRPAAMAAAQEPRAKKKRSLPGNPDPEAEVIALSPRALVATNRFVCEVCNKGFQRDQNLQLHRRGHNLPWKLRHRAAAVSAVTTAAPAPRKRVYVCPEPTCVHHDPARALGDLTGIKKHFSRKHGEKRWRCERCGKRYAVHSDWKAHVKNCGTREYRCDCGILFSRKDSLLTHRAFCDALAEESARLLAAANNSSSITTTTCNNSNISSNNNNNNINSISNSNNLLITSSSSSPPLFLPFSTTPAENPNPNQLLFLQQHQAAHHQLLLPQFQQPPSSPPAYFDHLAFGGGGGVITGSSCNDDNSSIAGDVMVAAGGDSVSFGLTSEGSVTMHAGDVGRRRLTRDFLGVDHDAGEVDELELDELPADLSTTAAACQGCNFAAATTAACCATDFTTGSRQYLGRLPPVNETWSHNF


Each binder was assayed against T1, RID1 (assay: EMSA; 10 uM ZnCl2; 10 mM Tris (pH not stated), 50 mM KCl, 10 uM ZnCl2, 1 mM DTT, 1 ug/ul poly(dI-dC), 0.1% BSA, 2.5% glycerol, 0.05% NP-40; 50 fmol probe; 30 min on ice; 6% native PAGE). Details: protein: recombinant; tags: His (pET-32a; vector Trx fusion not mentioned); label: 5' biotin; blunt.

Binder	binding result
bio-RFT1 (dsDNA) DNA 1: ATAACGTTTGACCATTTGTCTTATTAAATATATATATAAA DNA 2: TTTATATATATATTTAATAAGACAAATGGTCAAACGTTAT	binds
bio-RFT1-M (dsDNA) DNA 1: ATAACGTTTGACCATTAATCTTATTAAATATATATATAAA DNA 2: TTTATATATATATTTAATAAGATTAATGGTCAAACGTTAT	no binding
bio-Hd3a (dsDNA) DNA 1: CTTATCTTGCCCGGACAAATCGAGCTAAGCAA DNA 2: TTGCTTAGCTCGATTTGTCCGGGCAAGATAAG	binds
bio-Hd3a-M (dsDNA) DNA 1: CTTATCTTGCCCGGATTAATCGAGCTAAGCAA DNA 2: TTGCTTAGCTCGATTAATCCGGGCAAGATAAG	no binding
